In US7560106B2, “Rationally designed heparinases derived from heparinase I and II and methods of sequencing therewith” (Massachusetts Institute of Technology, priority 1998, dated 2009):

T1: heparinase II (Pedobacter heparinus, UniProt C6XZB6)
T1 sequence (C6XZB6 26-772): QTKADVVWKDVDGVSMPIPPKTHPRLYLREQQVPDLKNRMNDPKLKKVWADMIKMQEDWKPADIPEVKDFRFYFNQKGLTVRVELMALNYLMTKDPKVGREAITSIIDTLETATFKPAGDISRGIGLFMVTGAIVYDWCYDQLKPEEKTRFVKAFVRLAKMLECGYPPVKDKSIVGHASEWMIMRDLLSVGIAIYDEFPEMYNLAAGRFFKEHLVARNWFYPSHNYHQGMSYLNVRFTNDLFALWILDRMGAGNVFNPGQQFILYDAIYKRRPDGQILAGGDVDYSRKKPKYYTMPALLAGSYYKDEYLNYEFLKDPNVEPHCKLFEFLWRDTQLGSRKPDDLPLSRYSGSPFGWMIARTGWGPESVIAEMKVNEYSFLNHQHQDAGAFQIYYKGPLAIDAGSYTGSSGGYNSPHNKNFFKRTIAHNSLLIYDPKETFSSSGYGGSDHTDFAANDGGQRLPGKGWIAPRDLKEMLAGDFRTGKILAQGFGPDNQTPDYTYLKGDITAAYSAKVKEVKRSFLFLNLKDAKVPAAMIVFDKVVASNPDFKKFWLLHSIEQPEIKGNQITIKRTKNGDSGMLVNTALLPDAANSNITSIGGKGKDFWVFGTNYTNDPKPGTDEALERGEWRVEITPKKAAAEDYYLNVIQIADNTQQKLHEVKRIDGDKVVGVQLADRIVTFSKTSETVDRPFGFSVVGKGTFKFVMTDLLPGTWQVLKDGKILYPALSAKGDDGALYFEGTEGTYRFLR


Experiments:
[1] = target: T1, heparinase II; assay: 4-VP, NEM, IAA and IAM inactivation of heparinase II; type: biochemical, Flavobacterium heparinum
Experimental: 4-VP, NEM IAA, and AM Inactivation Heparinase II (100 μg/ml) was incubated with varying concentrations of either 4-VP, NEM, IAA or IAM (Lundblad, R. L. (1995) Techniques in Protein Modification. pp. 63-91, CRC Press, Boca Raton). Aqueous stock solutions ([…]) of each reagent was prepared immediately before use. For NEM and 4-VP the concentrations of modifying reagent were varied from 0.2-2 mM. In the case of IAA or IAM, the concentrations of the reagent ranged from 1-10 mM. All reactions were conducted in 50 mM sodium-phosphate buffer, pH 7.0, at room temperature. The time course of inactivation was monitored in each case, time courses for each of the reagents were compared using either heparin or heparan sulfate as the substrate.

[2] = target: T1, heparinase II; assay: DTNB modification and inactivation of heparinase II; type: biochemical, Flavobacterium heparinum
Source text: (§1) Heparinase II Activity Assay. Native heparinase II from Flavobacterium heparinum, was purified as described previously (Godavarti, R., and Sasisekharan, R (1996c) Biochem. Biophys. Res. Comm. 229, 770-777). The UV 232 nm assay to quantify native heparinase II enzymatic activity was similar to that reported for heparinase I (Bernstein, H., Yang, V. C., Cooney, C. L., Langer, R. (1988) Meth. Enzym. 137, 515-29). Briefly, the course of the reaction is monitored by measuring the increase in absorbance at 232 nm as a function of time under saturating substrate concentrations. With heparin as the substrate, the reaction was carried out at a concentration of 4 mg/ml in 50 mM sodium phosphate buffer, pH 7.3. With 2 mg/ml heparan sulfate, the reaction was measured in 50 mM sodium phosphate buffer, pH 6.9 (Sasisekharan, R., Moses, M. A., Nugent, M. A., Cooney, C. L., Langer, R. (1994) Proc. Natl. Acad. Sci., USA 91, 1524-1528). The temperature for all enzymatic activity measurements was kept constant at 35° C.
DTNB Modification Studies. (A) Inactivation with DTNB. Heparinase II (100 μg/ml) was incubated with DTNB (0.1-0.5 mM). A DTNB stock solution was made by dissolving DTNB in ethanol and an aliquot was added to the reaction mixture (Lundblad, R. L. (1995) Techniques in Protein Modification. pp. 63-91, CRC Press, Boca Raton).
(B) Quantification of DTNB—modified residues of heparinase II. Quantification of DTNB-modified heparinase II residues was determined by difference spectra. At time zero, 2 mM DTNB was added to the sample cuvette containing heparinase II (825 μg/ml) in sodium phosphate buffer, pH 7.0. The change in absorbance at 410 nm was monitored every. 30 seconds for 10 minutes. To account for the decomposition of DTNB in the reaction mixture, a control was also done by monitoring the change in absorbance at 410 nm with only DTNB (2 mM) in 50 mM sodium phosphate buffer, pH 7.0. Heparinase II activity assays were also performed on the reaction mixture. The number of heparinase II cysteine residues modified was determined using ∈=13,600 M cm^−1 (Lundblad, R. L. (1995) Techniques in Protein Modification. pp. 63-91, CRC Press, Boca Raton). A similar experiment was completed after preincubating the enzyme with heparin for 30 minutes.

[3] = Heparinase I activity as a function of calcium concentration (K0.5, calcium dependence); type: biochemical
Experimental: (§2) Heparinase I Activity Assays: The UV 232 nm assay was used as described in Example 1. When measuring the enzyme activity as a function of heparin concentration, heparin concentrations varied from 0 to 4 mg/ml at a fixed calcium concentration of 5 mM (100 mM MOPS buffer/5 mM calcium acetate, pH 7.0). The data was then fit to an non-linear equation to determine Kcat and Km of heparinases I. Heparinase mutant activity was also investigated as a function of calcium concentration ranging from 0 to 10 mM. […] Activity is expressed as IU-μmol product formed/min using ∈=−3800-M^−1CM^−1.

[4] = Fluorescence competition for calcium with probe rhod-5N; details: apparent dissociation constant of rhod-5N for calcium with 3 μM enzyme; lower Kd′ means less binding of calcium by heparinase I
Experimental: Fluorescence Competition. To determine the effect of mutations in CB-1 and CB-2 on the ability of heparinase I to bind calcium, mutants with a dramatic drop in activity were tested for their ability to bind calcium. To accomplish this, we examined the ability of heparinase I and mutants to compete for free calcium with the calcium-chelating fluorescence probe rhod-5N. The fluorescence probe rhod-5N was dissolved and diluted in buffer A (10 mM MOPS and 100 mM KCl, pH 6.5). Buffer A and the water used in the study were run through a Chelex Resin column to remove trace amounts of calcium. In the absence of calcium, rhod-5N is not fluorescent, however upon binding calcium rhod-5N is fluorescent with an emission λmax of 576 nm. Before titration, rhod-5N and heparinase I were added to a quartz cuvette such that the final concentration of rhod-5N in the cuvette was 0.3 μM and heparinase I is 3 μM. To this solution was added aliquots of a calcium solution (20 mM) which had been previously equilibrated with 0.3 μM rhod-5N and 3 μM heparinase I. The stock was added such that the calcium concentration in the cuvette was 50, 100, 200, 500, 1000, 5000 μM. After allowing the solution to come to equilibrium, the sample was scanned from 560 nm to 600 nm with the excitation wavelength fixed at […]. The plot of I/Imax versus [Ca^++] was fitted to a non-linear equation to determine the apparent Kd (Kd′) value. Thus, Kd′ values represent the apparent dissociation constants for the fluorescence probe rhod-5N. Control samples without heparinase I were included in the study.

[5] = Heparin-POROS affinity chromatography; type: binding; details: for NaCl: salt concentration at which enzyme elutes from heparin-POROS column, 10 mM Tris, 1 mM EDTA pH 7.0
Experimental: Heparin-POROS chromatography: About 30-40 μg of -L r-heparinase I and the various mutant enzymes were injected into a heparin POROS (4.6 mm×100) column (PerSeptive BioSystems, Framingham, Mass.) connected to BioCAD system (PerSeptive BioSystems). Proteins were eluted using a linear gradient of […] NaCl in 10 min (10 mM Tris, 1 mM EDTA pH 7.0) and monitored at 210 nm. EDTA was added to chelate any calcium ions that may be present in the buffers.

[6] = Heparinase I UV 232 nm activity assay as a function of heparin concentration (Kcat, Km); type: biochemical, porcine; details: heparin 0 to 4 mg/ml, 5 mM calcium acetate, pH 7.0; for Kcat: 100 mM MOPS
Source text: as §1
Heparinase I Activity Assay. The UV 232 nm assay to quantify heparinase I enzymatic activity was similar to that described in Example 1. With heparin as the substrate, the reaction was carried out at a concentration of 4 mg/ml in 100 mM MOPS, 5 mM calcium acetate, pH 7.0. The temperature for all enzymatic activity measurements was kept constant at 30° C. For the inactivation kinetic profiles, activity was measured as outlined above at precise time points.
as §2

[7] = 2 mM DTNB, 10 minutes, enzyme preincubated with heparin
[8] = 2 mM DTNB, 10 minutes, without heparin preincubation
[9] = calcium concentration at which half of the maximum enzyme activity was observed, calcium 0 to 10 mM, Table 4 first K0.5 column

| Kd [4] | Molecule | inhibition of heparinase II activity, in words [1] | K0.5 ([3]; Table 4 second K0.5 column) | K0.5 [3, 9] | NaCl [5] | Kcat [6] | Km [6] | also measured |
| --- | --- | --- | --- | --- | --- | --- | --- | --- |
|  | O=C(O)CI [IAA, iodoacetic acid] | least effective |  |  |  |  |  |  |
|  | C=Cc1ccncc1 [4-VP, 4-vinylpyridine] | inhibited heparinase II activity in a dose-dependent fashion |  |  |  |  |  |  |
|  | O=C(O)c1cc(SSc2ccc([N+](=O)[O-])c(C(=O)O)c2)ccc1[N+](=O)[O-] [DTNB, 5,5′-dithiobis-(2-nitrobenzoic acid)] |  |  |  |  |  |  | loss of activity [2, 7]: 25%; number of cysteines modified [2, 7]: 1.3 cysteines; loss of initial activity [2, 8]: 80%; number of cysteines modified [2, 8]: 2.4 cysteines; kinact/KI ([2]; DTNB 0-0.5 mM, read-out: second-order rate constant of inactivation (converted)): 10.2 M⁻¹ s⁻¹ |
|  | CCN1C(=O)C=CC1=O [NEM, N-ethylmaleimide] | inhibited heparinase II activity in a dose-dependent fashion |  |  |  |  |  |  |
| 136 µM | G378A/Y379A: heparinase I CB-2 double mutant (protein, UniProt Q05819 22-384, looked up, variant G378A Y379A) Heparin lyase I: QQKKSGNIPYRVNVQADSAKQKAIIDNKWVAVGINKPYALQYDDKLRFNGKPSYRFELKAEDNSLEGYAAGETKGRTELSYSYATTNDFKKFPPSVYQNAQKLKTVYHYGKGICEQGSSRSYTFSVYIPSSFPDNATTIFAQWHGAPSRTLVATPEGEIKTLSIEEFLALYDRMIFKKNIAHDKVEKKDKDGKITYVAGKPNGWKVEQGGYPTLAFGFSKGYFYIKANSDRQWLTDKADRNNANPENSEVMKPYSSEYKTSTIAYKMPFAQFPKDCWITFDVAIDWTKYGKEANTILKPGKLDVMMTYTKNKKPQKAHIVNQQEILIGRNDDDGYYFKFGIYRVGNSTVPVTYNLSAASETAR |  | 90 µM | 90 µM | 489 mM | 9 s⁻¹ | 0.31 µM | elution salt concentration / heparin binding relative to wild-type r-heparinase I, in words [5]: comparable to wild-type r-heparinase I |
| 151 µM | E207A/D210A/D212A: heparinase I CB-1 triple mutant (protein, UniProt Q05819 22-384, looked up, variant E207A D210A D212A) Heparin lyase I: QQKKSGNIPYRVNVQADSAKQKAIIDNKWVAVGINKPYALQYDDKLRFNGKPSYRFELKAEDNSLEGYAAGETKGRTELSYSYATTNDFKKFPPSVYQNAQKLKTVYHYGKGICEQGSSRSYTFSVYIPSSFPDNATTIFAQWHGAPSRTLVATPEGEIKTLSIEEFLALYDRMIFKKNIAHDKVAKKAKAGKITYVAGKPNGWKVEQGGYPTLAFGFSKGYFYIKANSDRQWLTDKADRNNANPENSEVMKPYSSEYKTSTIAYKMPFAQFPKDCWITFDVAIDWTKYGKEANTILKPGKLDVMMTYTKNKKPQKAHIVNQQEILIGRNDDDGYYFKFGIYRVGNSTVPVTYNLSGYSETAR |  | 810 µM | 810 µM | 540 mM | 25 s⁻¹ | 0.73 µM |  |
| 206 µM | -L: wild-type recombinant heparinase I expressed without the putative F. heparinum leader sequence (protein, UniProt Q05819 22-384, looked up, recombinant, without leader sequence) Heparin lyase I: QQKKSGNIPYRVNVQADSAKQKAIIDNKWVAVGINKPYALQYDDKLRFNGKPSYRFELKAEDNSLEGYAAGETKGRTELSYSYATTNDFKKFPPSVYQNAQKLKTVYHYGKGICEQGSSRSYTFSVYIPSSFPDNATTIFAQWHGAPSRTLVATPEGEIKTLSIEEFLALYDRMIFKKNIAHDKVEKKDKDGKITYVAGKPNGWKVEQGGYPTLAFGFSKGYFYIKANSDRQWLTDKADRNNANPENSEVMKPYSSEYKTSTIAYKMPFAQFPKDCWITFDVAIDWTKYGKEANTILKPGKLDVMMTYTKNKKPQKAHIVNQQEILIGRNDDDGYYFKFGIYRVGNSTVPVTYNLSGYSETAR |  | 270 µM | 270 µM | 482 ± 3 mM | 92 s⁻¹ | 3.94 µM | NaCl ([5]; listed as wild-type r-heparinase I): about 482 mM |
